Three molecules from publication PMC2935968, “Structural Basis for Assembly of Hsp90-Sgt1-CHORD Protein Complexes: Implications for Chaperoning of NLR Innate Immunity Receptors” (Molecular Cell, 2010) can be followed below.

B2: CS domain of cress (Arabidopsis thaliana) Sgt1a (domain or fragment)
chain: AKYRHEYYQKPEEVVVTVFAKGIPKQNVNIDFGEQILSVVIEVPGEDAYYLQPRLFGKIIPDKCKYEVLSTKIEICLAKADIITWASLEHGK
notes: Sgt1a, Arabidopsis thaliana, CS domain; construct as described previously (Boter et al., 2007; Zhang et al., 2008); also called Sgt1-CS; Sgt-CS

Test [1] has as its target B2. The test can be described thus: ITC; Rar1-CHORDII with Sgt1-CS (Figure S2C); conditions not shown. The note with it: both partners purified. In general terms: In ITC the heat of successive injections is recorded.
A further test deals with T1, GST-Rar1 (wild type) (Arabidopsis thaliana, UniProt Q9SE33 1-226).
T1 construct: Rar1, Arabidopsis thaliana, wild type; Construct details are in the Supplemental Information; also called Wild-type GST-Rar1; GST-tagged Rar1
T1 sequence (looked up): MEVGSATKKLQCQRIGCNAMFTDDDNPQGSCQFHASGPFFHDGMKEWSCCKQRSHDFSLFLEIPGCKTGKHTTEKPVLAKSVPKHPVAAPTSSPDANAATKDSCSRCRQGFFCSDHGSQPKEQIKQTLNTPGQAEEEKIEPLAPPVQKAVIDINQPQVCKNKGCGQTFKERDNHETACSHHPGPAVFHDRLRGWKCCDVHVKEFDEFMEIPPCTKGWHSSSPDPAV
The test can be described thus: pull-down; GST-Rar1 as bait, Hsp90, untagged Rar1 and Sgt1-CS present. The note with it: both partners purified.

Another test deals with Hsp90 ( (Arabidopsis, H. vulgare or …, UniProt Q7XJ80 1-700)). The experiment in a line: cell-based or functional assay.
Hsp90 (, sequence (Q7XJ80 entry or part of it): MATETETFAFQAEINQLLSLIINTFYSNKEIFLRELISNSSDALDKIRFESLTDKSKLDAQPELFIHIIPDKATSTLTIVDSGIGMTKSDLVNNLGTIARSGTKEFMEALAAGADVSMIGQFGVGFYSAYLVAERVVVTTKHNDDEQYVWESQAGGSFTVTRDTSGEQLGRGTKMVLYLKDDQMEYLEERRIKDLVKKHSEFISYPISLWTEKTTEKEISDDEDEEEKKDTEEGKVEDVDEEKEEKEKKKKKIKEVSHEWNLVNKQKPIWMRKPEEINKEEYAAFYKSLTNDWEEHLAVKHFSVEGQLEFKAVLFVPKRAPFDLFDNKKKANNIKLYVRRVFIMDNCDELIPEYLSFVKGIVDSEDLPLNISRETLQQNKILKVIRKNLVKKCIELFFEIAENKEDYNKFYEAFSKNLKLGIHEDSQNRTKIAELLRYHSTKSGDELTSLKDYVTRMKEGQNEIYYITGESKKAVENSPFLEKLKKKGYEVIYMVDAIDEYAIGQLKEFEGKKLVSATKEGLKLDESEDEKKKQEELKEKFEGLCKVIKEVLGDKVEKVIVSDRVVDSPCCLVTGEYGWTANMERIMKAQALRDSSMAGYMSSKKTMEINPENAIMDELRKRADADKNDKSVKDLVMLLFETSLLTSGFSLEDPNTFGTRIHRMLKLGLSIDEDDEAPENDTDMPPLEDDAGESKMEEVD

B1: CHORDII domain of cress (Arabidopsis thaliana) Rar1 (domain or fragment)
chain: AVIDINQPQVCKNKGCGQTFKERDNHETACSHHPGPAVFHDRLRGWKCCDVHVKEFDEFMEIPPCTKGWHSSS
notes: Rar1, Arabidopsis thaliana, CHORDII domain; also called Rar1-CHORDII; isolated CHORDII
For B1, binding in test [1] was put at a Kd of 3.09 ± 0.15 µM. Take B2: the binding result with GST-Rar1 (wild type) was “binds”.

B3: Rar1 (wild type, not GST-tagged) (natural protein, Arabidopsis thaliana, UniProt Q9SE33 1-226, looked up)
chain: MEVGSATKKLQCQRIGCNAMFTDDDNPQGSCQFHASGPFFHDGMKEWSCCKQRSHDFSLFLEIPGCKTGKHTTEKPVLAKSVPKHPVAAPTSSPDANAATKDSCSRCRQGFFCSDHGSQPKEQIKQTLNTPGQAEEEKIEPLAPPVQKAVIDINQPQVCKNKGCGQTFKERDNHETACSHHPGPAVFHDRLRGWKCCDVHVKEFDEFMEIPPCTKGWHSSSPDPAV
B3: the “ATP turnover of Ta-Hsp90 with increasing concentrations of Rar1 (up to 20-fold excess)” value in the test with Hsp90 came to 2 fold.

A word on the Kd: it is a measure of binding affinity in units of concentration. The low end stands for tighter binding, the high end for weaker binding.
